The values below are quoted from earlier work in PMC7663405.

This data set concerns the target CD80 (Homo sapiens) (UniProt P33681).
UniProt P33681, sequence (P33681 35-242): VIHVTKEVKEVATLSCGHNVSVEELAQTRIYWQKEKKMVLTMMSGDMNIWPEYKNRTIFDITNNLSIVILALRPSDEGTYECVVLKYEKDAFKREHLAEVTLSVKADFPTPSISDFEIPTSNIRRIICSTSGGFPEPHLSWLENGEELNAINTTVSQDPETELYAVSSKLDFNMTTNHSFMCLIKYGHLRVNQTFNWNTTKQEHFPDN

For orientation: Kd means a measure of binding affinity in units of concentration. As to PD-L1 (from UniProt Q9NZQ7), the Kd was 1.9 µM.
